# According to the DeepSol protein solubility set:
# Experiment: soluble on expression in E. coli; label from the status in PepcDB or PDB records
row,Sequence,soluble on expression in E. coli
1,MSLEIVQEGIAKIIVPEIPKTVSSDMPVFYNPRMRVNRDLAVLGLEYLCKKLGRPVKVADPLSASGIRAIRFLLETSCVEKAYANDISSKAIEIMKENFKLNNIPEDRYEIHGMEANFFLRKEWGFGFDYVDLDPFGTPVPFIESVALSMKRGGILSLTATDTAPLSGTYPKTCMRRYMARPLRNEFKHEVGIRILIKKVIELAAQYDIAMIPIFAYSHLHYFKLFFVKERGVEKVDKLIEQFGYIQYCFNCMNREVVTDLYKFKEKCPHCGSKFHIGGPLWIGKLWDEEFTNFLYEEAQKREEIEKETKRILKLIKEESQLQTVGFYVLSKLAEKVKLPAQPPIRIAVKFFNGVRTHFVGDGFRTNLSFEEVMKKMEELKEKQKEFLEKEGHHHHHH,soluble
2,MRKKLLSIALCATMVAGIFTGCGSSSDTSKKDEGKSADGKITLNVINYHVGTDYAADYYEYLFDAFKKTEEGKNVEFKFEEIPTTDAYNQKIKLLISSGDLPDIVLNGGNNITALAAKSGKVTDITEYLDKDPEWKAMFSDQDLEFNSYEGKVYGIPVSKEISYIYYNKDLFKKAGLEAPDVAYETWDDFYKACDTLKSKNITPVSMDTADLGWLSNLWYSGLIGTAGEEGNKFMNTMYPTDYTSDLVVNATEQLQKMLKNYTTSDAAGGKYDTMATHFFNSEVAMLPNGPWMIPDFKSTDKAPEGFYDKVGIMLLPGSGMESVPTPGDMVGTKDPEKVKAAVAFLKFETTAENQLKALEMAGLQPVSSNIEVPDSLKESDPLMAEVLDIQSKAKYTYGQNQAYWYQNVIDTFSTQLPELAYGNMTAKEFCQKLTDAAKKN,not soluble
3,MGVKVASSSTFLQWTTQPIIHQSSSPSQTLASGTITSPSKRRSTVHDGRFLSCRFVTQRLNRSALFGTPSTKLHRPKSCELWKSSSSSSRPIKTQSFRRVYSANLDPFSDEEFSKKIQELTLRFNIPHHDDDENSIEPPWNEMVHLSSIEMKANSVDLPLSLRIIKKKRQWEEGVKQAGESACCSMNKAFSSMVFMIRELQSFTLHMREILFYEDLQEILLRVREEMQQSFVWLFQQVFSATPTLMVYVMILLANFTVYSIGNNSSALAAVAPLPPTITELTTVSETEETNVKFDSSVVKTFFVSSPSGSIASVGGNNNGGGGNVKPVLSGTDGDGSDGSEQFRTIIPEGVSQLSSSNFGSEPSVSGQDEHRLWNSMVEEAERMQYSNIDDSLDQETRKRFVSHVEARVEAEEDTGYFKTELMYQTELSQEPNNPLLLANYAQFLYLVSNDHDRAEEYFKRAVGVEPKDAEAFSKYATFLWRARDDLWAAEETFLEAIDADPTNSYYAANYANFLWNTGGDDTCFPLDDESHEDTI,not soluble
4,MSLAPVNIFKAGADEERAETARLTSFIGAIAIGDLVKSTLGPKGMDKILLSSGRDASLMVTNDGATILKNIGVDNPAAKVLVDMSRVQDDEVGDGTTSVTVLAAELLREAESLIAKKIHPQTIIAGWREATKAAREALLSSAVDHGSDEVKFRQDLMNIAGTTLSSKLLTHHKDHFTKLAVEAVLRLKGSGNLEAIHIIKKLGGSLADSYLDEGFLLDKKIGVNQPKRIENAKILIANTGMDTDKIKIFGSRVRVDSTAKVAEIEHAEKEKMKEKVERILKHGINCFINRQLIYNYPEQLFGAAGVMAIEHADFAGVERLALVTGGEIASTFDHPELVKLGSCKLIEEVMIGEDKLIHFSGVALGEACTIVLRGATQQILDEAERSLHDALCVLAQTVKDSRTVYGGGCSEMLMAHAVTQLANRTPGKEAVAMESYAKALRMLPTIIADNAGYDSADLVAQLRAAHSEGNTTAGLDMREGTIGDMAILGITESFQVKRQVLLSAAEAAEVILRVDNIIKAAPRKRVPDHHEGHHHHHH,soluble
5,MRNLIISAALVAASLFGMSAQAAEPIESGKQYVELTSAVPVAVPGKIEVIELFWYGCPHCYAFEPTINPWVEKLPSDVNFVRIPAMFGGPWDAHGQLFITLDTMGVEHKVHAAVFEAIQKGGKRLTDKNDMADFVATQGVNKDDFLKTFDSFAVKGKIAQYKELAKKYEVTGVPTMIVNGKYRFDLGSAGGPEKTLQVADQLIDKERAAAKAAK,not soluble
6,MGSDKIHHHHHHMIPYNQSSVSTLQTKERKIDVFSVEGNVDNETVKSFGEEWTAFDSFNETEIYNAGDNYFDIVPETILKHITNALDVGCGTGRWSYYLSEKVGFIECIDPSEAVIAASSLLSGKNNIRISKAGVDNIPFADGTFDFVFSLGVLHHVPDTKKAVHACVQKLKMNGHILLYLYYNLENRGLIFKTLFHLSNSLRWMVSKLPGAIKRFVCDLLAIVIYMPFVIVSRILIKLNLAASVVSRVPLSWYADKSFNIIRNDSLDRFGTPLEQRFSKQQITDMLIHAGCTDIVFADNAPFWRVIAKKK,not soluble
7,MILVTGFEPFGSLEHNPSQALLDLLPSEVDGKPLRKAVLPVDAEALGEALEDLHREGPKAVLHLGLAEDRPVLTLERLAVNLLDFPRPDNRGRVLEDLPIVPGGPLALPARFPVKPVLARWREAGIPGRPSLSAGSYLCNQAFYLSLYRLPEEVPVGFLHLPPDETLALKRPRPYVPLEVQARAVRLALEHL,soluble
8,MLIFEGKEISTDSEGYLKETTQWSEALAVAIAANEGIELSAEHWEVVRFVREFYLEFNTSPAIRMLVKAMANKFGEEKGNSRYLYRLFPKGPAKQATKIAGLPKPVKCI,not soluble
9,MSAFQAFVVNKTETEFTAGVQTISMDDLPEGDVLVRVHYSSVNYKDGLASIPDGKIVKTYPFVPGIDLAGVVVSSQHPRFREGDEVIATGYEIGVTHFGGYSEYARLHGEWLVPLPKGLTLKEAMAIGTAGFTAALSIHRLEEHGLTPERGPVLVTGATGGVGSLAVSMLAKRGYTVEASTGKAAEHDYLRVLGAKEVLAREDVMAERIRPLDKQRWAAAVDPVGGRTLATVLSRMRYGGAVAVSGLTGGAEVPTTVHPFILRGVSLLGIDSVYCPMDLRLRIWERLAGDLKPDLERIAQEISLAELPQALKRILRGELRGRTVVRLA,soluble
10,MGSDKIHHHHHHMNIVTLISWDFKRNNESFQRAIINGYDYWSRILDDHGVEKYVILLTCNRVELYYRGDPFDVQEKGYNIISDDMAINHLFHVAAGLDSMSIGENEVLKQVKQAYEKSSSMGKSDKFLSLIFQRAISVGKLVRSKTGIGKGKVSIPSIVYDIVRKNGGNKILLVGNGMLASEIAPYFSYPQYKVTVAGRNIDHVRAFAEKYEYEYVLINDIDSLIKNNDVIITATSSKTPIVEERSLMPGKLFIDLGNPPNIERGNNVITLDEIYEISKKNEMLREEKINQAEILIENEMKATMNKIKDLMIDDIFSQFYRFASVVQTMEIQKFRKMHPEVNENDLEALAHSIINKILNVPVTTLKAVSRSQGNSDFNRLFESFSSNFNDIVSAALQSYEGLRDTQSLRDRTRQLLQKS,not soluble
11,MKSDDLERLEESQEMQQLIHAAKEQYEQEKSVHPPVAYAAFAQNLRERQKDGKMKAKQEPPERETFEVKGGKRSGISPWWLVAACLLGGIIGYGISTTSDRQEAGLERLAVADTVIVVRERVDTVYREVEVPSQPLVASRSTVKSKSTGLTKEHVKQSRKAVQKAEPAFISIEFLQQQQNLPDPNSECYAANGMTVAEGNYPFHLLATVPCK,not soluble
12,MEYGIVYLLTNPVMPGLVKIGMTTQEGIDKRMKELYTTGVPIPFECKFACKVKKSDCLKIEKALHKAFDPQRINQNREFFRINVEQAQAILELFHHEDVTEEVTDEIQNDLTDEDKAASTKAQAKRPPLNFYEMGLQKGDILIWKDDPSISVTVLSERKVCYEGEETSISALSAKLKGYKVKHIQPTPHWFFNDRSLSEIYDETYPFEE,not soluble
13,GPGSMPVDYSKKLDALRELYERVQQKDTDIPEDVYAAAGVKNKARLKDIEKEISTTKKKVSQEVKKVTNEEIEKEYEALAKEHNMTVEEFKETVMGKGRQPALGSEFSERHAAQRKERAEQRDLKETRRQVERGDFDMTVDYV,soluble
14,MGSDKIHHHHHHEYKNVNEIIVEELEIPVPLGDPFILLHNGTYYAYGTHSDEGIEVYISDNLKTWKYKGLALNKKDSWADRWFWAPEVYEVNGKFYMYYSADEHICVAVADSPVGPFIQNKQEPMIVEEKCIDNSFFMDDDGTPYLSFVRFNDGNNVWIAELEKDLITLKKETMRPCIHVSQAWEEVWPRVNEGSYILKHNGIYYMTYSANSYESPFYGVGCATATDIMGEWAKYDENPLLQNPGGLVGVGHSAMFTDKEGKLRIVFHAHKDKSNIHPRAMYIGTVNFENVNGTDRMRISKEYITPKLLQ,not soluble
15,MSLEVQDDINSVDDIDSKLYHSVEWFYENKMYEDAIVATIAIIRRFLLCGKLAPLKAFSKGKNFKLLLVEYDTQLQTKSLIFQNEPEIVTEEDKEELLAYASLIEGLILIDEWKKFVSTQINSQGKWLSTGVDSSIDKTSKTLLNLIFKWFKNTSSEKDSDLAIYSEFRSIYVPYLIIELLKIFQNAREKDWKYMRSAFSLINDVANEEQNDFLSCFLKCGRLDEFLVKAGEVSIVAVEKGISGIFYEGHHHHHH,not soluble
16,MIITDDHMHLYNHLKLKALEQFRDAGGTHVFLVNLLCHHYGIRPTSGKDFREVFERHLSLVEKANKIVKAYAVLGVHPAEITVIGDRIGHEKAAEMMKEALEIAGKYVEEGKAVALKSGRPHYPVSRHVWQLSNDVLRHAFEVAKDVGCAIQLHTESYTKEGMLEIAKMADEVGLKREKVVKHFSPPLIKEFEEIGIFPSVLAGNNNVLKAAEQGNRFTVETDYIDDRKRPGAVLGPKTVPRKVKELIELGYEDIAYKICVENVEKVYGV,not soluble
17,MAIQLSKGQRIDLTKTNPGLTKAVIGLGWDTNKYSGGHDFDLDASAFLVDAHDNCVNDLDFVFYNNLEHPSGGVIHTGDNRTGEGDGDDEQIIVDFSKIPAHIEKIGITVTIHDAEARSQNFGQVSNAFVRVVDEETQNELLRFDLGEDFSIETAVVVCELYRHGGEWKFNAIGSGFSGGLAALCRNYGLQVLEHHHHHH,soluble
18,MSLTLEDIARKLNISKNAVSLALANKPGVSEKTRQLVFQTAKELGYKFKEKEEQKGTIALIMTKNIIEDPYFFSAIVYSVENEIRKEGYDFSLYCISSEDEWNIEEILTSSSFEGIIIVSAISENVIKKIEEKKIPTVVIDNLVDSTCIDTVNTDNYRSTKAAIEYLIKQGFKHIGFIGDVNHAISYRERWEGFMAAHEEFDIEIDKKVCKIEGFKDFSKNPEPEIQAFLKSLEKMPQAFFCVSDLSTLLTASVLKEMGFQIPKDVSIVGFDDIELVKHFKPALSMIHIDRNYYGQRAVKQLLERIKCPNKPVEDVRIFCRLNIRKSIRAEGHHHHHH,not soluble
19,WKQKVGYPTNQTWGYIAEGLFVDDNEVANSPVQFGEYGAGDIKYRDVNKDGKITDLDQVPIGYPKEPEIVYGFGASYGYKNWDISVFFQGLARESFWIDYNNVSPYFNTVDTKVVGNRVGHNALAKFIADSHWSEDNRDAYAVWPRLSPTSIENNSKTSTWFMRDGSFLRLKQLEIGYTIPEKVTNKVGIKNLRFYVTGNNLLCFSKFKLWDPEMAGAGLGYPVQRVYNVGLNLTF,not soluble
20,SEFQSTVVATVDCQKQVRSWRLLRSFIQLLIPTCNCTLVQELEQDNTNLRGKKLYNDIKSRTSSFRSSSSLSSSTVTGTIFGYRKGKINFCIQTPRKSTNLDLLLELAVPTTVLAREMREGALRIVLERNNEKQDDDSFLSKPFWNMYCNGKRVGYARKRSPSQDDMTALTALSKVVVGAGVVTGKELGRFDDELMYLRASFRRVNGSKESESFHLIDPAGNIGQELSIFIVPSSV,soluble
21,MRQAASIACIGGANVDRKARLLTPFRLGTSHPVTTTQTAGGVARNIAENLGRLAQPVSLVSTVGDDRDGQWLVDVTSRYVNTSFIVRTPKANTGTYTAVLDERGEMVLALADMAIYHPEPRRPPLPRVSVSGG,not soluble
